This passage reports peptide exchange yield results from patent US20170189511A1.

The target of the experiment is HLA-A*24 (peptide-receptive MHC class I monomer of the UV-ligand exchange assay) (human). As to the kind of experiment: UV-ligand exchange with anti-b2m ELISA. In general terms: An ELISA detects its analyte on a solid surface through an enzyme-linked reagent.
QYLGQIQHI [Peptide SEQ ID NO: 268 (…)]: the peptide exchange yield was 50 to 75%.

For the molecule YYKSTSSAF [Peptide SEQ ID NO: 218 (…)], the peptide exchange yield fell in the range of 50 to 75%.

IYATEAHVF [Peptide SEQ ID NO: 201 (…)]: the peptide exchange yield lay in the range of 50 to 75%.

VYWDSAGAAHF [Peptide SEQ ID NO: 202 (…)]: the peptide exchange yield is over 75%.

In the case of AYVVFVSTL [Peptide SEQ ID NO: 207 (…)], the peptide exchange yield lay in the range of 20 to 49%.

As for TYSVSFPMF [Peptide SEQ ID NO: 195 (…)], the peptide exchange yield is over 75%.

For NYYEVHKELF [Peptide SEQ ID NO: 270 (…)], the peptide exchange yield lay in the range of 50 to 75%.

Take TFSVSSHLF [Peptide SEQ ID NO: 222 (…)]: the peptide exchange yield was in the range of 50 to 75%.

For the molecule HYPPVQVLF [Peptide SEQ ID NO: 285 (…)], the peptide exchange yield lay in the range of 50 to 75%.

In turn, YFIDSTNLKTHF [Peptide SEQ ID NO: 269 (…)] came in with a peptide exchange yield of 50 to 75%.

EYNQWFTKL [Peptide SEQ ID NO: 176 (…)] registered a peptide exchange yield of 50 to 75%.

As to TYELRYFQI [Peptide SEQ ID NO: 204 (…)], the peptide exchange yield is over 75%.

In turn, YYGPSLFLL [Peptide SEQ ID NO: 200 (…)] yielded a peptide exchange yield of 50 to 75%.

On to EYSLFPGQVVI [Peptide SEQ ID NO: 197 (…)], for which the peptide exchange yield fell in the range of 50 to 75%.

The molecule RYAEEVGIF [Peptide SEQ ID NO: 199 (…)] had a peptide exchange yield of 50 to 75%.

Consider VYQGHTALL [Peptide SEQ ID NO: 277 (…)], for which the peptide exchange yield was over 75%.

With TYKDEGNDYF [Peptide SEQ ID NO: 209 (…)], the peptide exchange yield is 50 to 75%.

PYRLIFEKF [Peptide SEQ ID NO: 281 (…)] showed a peptide exchange yield of 20 to 49%.

LYIDRPLPYL [Peptide SEQ ID NO: 196 (…)] registered a peptide exchange yield of 50 to 75%.

IYSWILDHF [Peptide SEQ ID NO: 173 (…)] yielded a peptide exchange yield of over 75%.

VYVGGGQIIHL [Peptide SEQ ID NO: 174 (…)] came in with a peptide exchange yield of 50 to 75%.

LYITEPKTI [Peptide SEQ ID NO: 287 (…)] yielded a peptide exchange yield of 50 to 75%.

Molecule YYEVHKELF [Peptide SEQ ID NO: 175 (…)] gave a peptide exchange yield of over 75%.
